Source: patent US20150315278A1 (Chugai, published 2015)

Columns and labels:
[1] = target: T1, soluble GPC3 core polypeptide (Homo sapiens (Human), UniProt P51654 25-563); assay: competitive ELISA against biotinylated H0L0 on immobilized soluble GPC3 core (FIG. 4)
T1 construct: Immobilized on the ELISA plate at 1 ug/mL; also called glypican 3 antigen; glypican 3
Protocol: (§1) The H0L0 antibody and its point mutation-modified antibodies purified in (1) was evaluated by competitive ELISA. 100 μL of the soluble GPC3 core polypeptide (SEQ ID NO: 13) at 1 μg/mL was added to each well of a 96-well plate. The soluble GPC3 core polypeptide was immobilized on the plate by allowing the plate to stand overnight at 4° C. The soluble GPC3 core polypeptide immobilized on the plate was washed 3 times with a washing buffer using Skan WASHER400 (Molecular Devices); and blocked with 200 μL blocking buffer at 4° C. for at least 30 min. The blocked plate on which soluble GPC3 core polypeptide was immobilized was then washed 3 times with washing buffer using the Skan WASHER400. Subsequently, each well of the plate received 200 μL of a mixture containing 100 μL of biotinylated H0L0 antibody (final concentration=0.3 μg/mL) and 100 μL of the H0L0 antibody or its point mutation-modified antibody (at various concentrations). The H0L0 antibody was biotinylated using Biotin Labeling Kit (Roche) according to the instructions provided with the kit. The plate was left stand for 1 hour at room temperature, then washed 5 times with washing buffer using the Skan WASHER400 (Molecular Devices). […] The absorbance at 405 nm of the reaction solution in each well was measured using Benchmark Plus (BIO-RAD), with the control absorbance at 655 nm.

[2] = target: T1, soluble GPC3 core polypeptide; assay: competitive ELISA against biotinylated H0L0 on immobilized soluble GPC3 core (FIG. 14)
Protocol: The H0L0 antibody and its point mutation-modified antibodies purified in (1) was evaluated by competitive ELISA. 100 μL of the soluble GPC3 core polypeptide (SEQ ID NO: 13) at 1 μg/mL was added to each well of a 96-well plate. The soluble GPC3 core polypeptide was immobilized on the plate by allowing the plate to stand overnight at 4° C. The soluble GPC3 core polypeptide immobilized on the plate was washed 3 times with a washing buffer using Skan WASHER400 (Molecular Devices); and blocked with 200 μL blocking buffer at 4° C. for at least 30 min. The blocked plate on which soluble GPC3 core polypeptide was immobilized was then washed 3 times with washing buffer using the Skan WASHER400. Subsequently, each well of the plate received 200 μL of a mixture containing 100 μL of biotinylated H0L0 antibody (final concentration=0.3 μg/mL) and 100 μL of the H0L0 antibody or its point mutation-modified antibody (at various concentrations). The H0L0 antibody was biotinylated using Biotin Labeling Kit (Roche) according to the instructions provided with the kit. The plate was left stand for 1 hour at room temperature, then washed 5 times with washing buffer using the Skan WASHER400 (Molecular Devices). 100 μL goat anti-streptavidin alkaline phosphatase (ZYMED), diluted 20,000× with substrate buffer, was added to each well, and the resulting plate was left stand for 1 hour at room temperature, and then washed 5 times with washing buffer using the Skan WASHER400. Phosphatase Substrate (Sigma) was prepared at 1 mg/mL in the substrate buffer, added at 100 μL per well for 1 hour. The absorbance at 405 nm of the reaction solution in each well was measured using Benchmark Plus (BIO-RAD), with the control absorbance at 655 nm.
The binding activity to the antigen of each constant region pI modified antibody was measured using the method described in Example 1 (FIG. 14).

[3] = target: T1, soluble GPC3 core polypeptide; assay: competitive ELISA against biotinylated H0L0 on immobilized soluble GPC3 core (FIG. 5)
Protocol: as §1

[4] = target: T1, soluble GPC3 core polypeptide; assay: competitive ELISA against biotinylated H0L0 on immobilized soluble GPC3 core (FIG. 6)
Protocol: as §1

[5] = target: T1, soluble GPC3 core polypeptide; assay: competitive ELISA against biotinylated H0L0 on immobilized soluble GPC3 core (FIG. 10)
Protocol: as §1, with “kit.” for “kit. The plate was left stand for 1 hour at room temperature, then washed 5 times with washing buffer using the Skan WASHER400 (Molecular Devices).”
The binding activity to the antigen glypican 3 of each point mutation pI modified antibody was measured using the method described in Example 1 (FIG. 10).

T1 sequence (P51654 other isoform, or with tags, fused parts or gaps limits assumed): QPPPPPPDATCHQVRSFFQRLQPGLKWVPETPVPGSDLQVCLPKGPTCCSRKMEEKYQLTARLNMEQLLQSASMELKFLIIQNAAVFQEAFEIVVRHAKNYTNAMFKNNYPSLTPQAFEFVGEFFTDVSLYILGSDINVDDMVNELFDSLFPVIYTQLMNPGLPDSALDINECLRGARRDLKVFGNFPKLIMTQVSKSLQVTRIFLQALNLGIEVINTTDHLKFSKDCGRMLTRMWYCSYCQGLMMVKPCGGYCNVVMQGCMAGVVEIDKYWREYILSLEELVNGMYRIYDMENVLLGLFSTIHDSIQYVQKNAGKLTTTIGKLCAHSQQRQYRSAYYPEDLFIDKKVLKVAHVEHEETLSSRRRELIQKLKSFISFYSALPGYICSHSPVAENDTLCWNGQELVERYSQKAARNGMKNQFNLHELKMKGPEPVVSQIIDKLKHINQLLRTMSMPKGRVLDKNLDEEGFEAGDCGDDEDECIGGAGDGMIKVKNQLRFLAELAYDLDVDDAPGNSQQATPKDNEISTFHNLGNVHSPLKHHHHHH

| binding result [2] | Binder | other results |
| --- | --- | --- |
| – | H15L4 antibody (antibody, V domains shown, Point-mutation modified form of H0L0) VH: QVQLVQSGAEVKKPGASVKVSCKASGYTFTDYEMHWIRQPPGQGLEWIGAIDPKTGDTAYSQKFKGRVTLTADKSTSTAYMELSSLTSEDTAVYYCTRFYSYTYWGQGTLVTVSS VL: DIVMTQSPLSLPVTPGEPASISCRSSQSLVHSNRNTYLHWYQQKPGQAPRLLIYKVSNRFSGVPDRFSGSGSGTDFTLKISRVEAEDVGVYYCSQNTHVPPTFGQGTKLEIK | binding result [1]: binds |
| binds | pH7pL16 antibody (antibody, IgG1, V domains shown, Variable regions only) VH: QVQLVQSGAEVKKPGASVTVSCKASGYTFTDYEMHWIRQPPGEGLEWIGAIDPKTGDTAYSESFQDRVTLTADKSTSTAYMELSSLTSEDTAVYYCTRFYSYTYWGQGTLVTVSS VL: DIVMTQSPLSLPVTPGEPASISCQASESLVHSNRNTYLHWYLQKPGQSPQLLIYKVSNRFSGVPDRFSGSGSGTDFTLKISRVEAEDVGVYYCSQNTHVPPTFGQGTKVEIE | – |
| binds | pH7M85pL16 antibody (antibody, human IgG1, V domains shown, its constant region is not specified; also called pH7M85pL6 [sic]) VH: QVQLVQSGAEVKKPGASVTVSCKASGYTFTDYEMHWIRQPPGEGLEWIGAIDPKTGDTAYSESFQDRVTLTADKSTSTAYMELSSLTSEDTAVYYCTRFYSYTYWGQGTLVTVSS VL: DIVMTQSPLSLPVTPGEPASISCQASESLVHSNRNTYLHWYLQKPGQSPQLLIYKVSNRFSGVPDRFSGSGSGTDFTLKISRVEAEDVGVYYCSQNTHVPPTFGQGTKVEIE | – |
| binds | H0M85L0 antibody (antibody, human IgG1, V domains shown, its constant region is not specified) VH: QVQLVQSGAEVKKPGASVKVSCKASGYTFTDYEMHWVRQAPGQGLEWMGALDPKTGDTAYSQKFKGRVTLTADKSTSTAYMELSSLTSEDTAVYYCTRFYSYTYWGQGTLVTVSS VL: DVVMTQSPLSLPVTPGEPASISCRSSQSLVHSNRNTYLHWYLQKPGQSPQLLIYKVSNRFSGVPDRFSGSGSGTDFTLKISRVEAEDVGVYYCSQNTHVPPTFGQGTKLEIK | – |
| – | Hspu2.2Lspu2.2 (Hu2.2Lu2.2) antibody (antibody, V domains shown, Raised-pI variant; Hspu2.2 = H15 + Q43K, D52N, Q107R; Lspu2.2 = L4 + E17Q, Q27R, Q105R, S25A) VH: QVQLVQSGAEVKKPGASVKVSCKASGYTFTDYEMHWIRQPPGKGLEWIGAINPKTGDTAYSQKFKGRVTLTADKSTSTAYMELSSLTSEDTAVYYCTRFYSYTYWGRGTLVTVSS VL: DIVMTQSPLSLPVTPGQPASISCRASRSLVHSNRNTYLHWYQQKPGQAPRLLIYKVSNRFSGVPDRFSGSGSGTDFTLKISRVEAEDVGVYYCSQNTHVPPTFGRGTKLEIK | binding result [3]: binds |
| binds | humanized H0L0 antibody (antibody, V domains shown, the light chain constant region is not specified; also called humanized GC33 antibody) VH: QVQLVQSGAEVKKPGASVKVSCKASGYTFTDYEMHWVRQAPGQGLEWMGALDPKTGDTAYSQKFKGRVTLTADKSTSTAYMELSSLTSEDTAVYYCTRFYSYTYWGQGTLVTVSS VL: DVVMTQSPLSLPVTPGEPASISCRSSQSLVHSNRNTYLHWYLQKPGQSPQLLIYKVSNRFSGVPDRFSGSGSGTDFTLKISRVEAEDVGVYYCSQNTHVPPTFGQGTKLEIK | – |
| – | Hspd1.8Lspd1.6 (Hd1.8Ld1.6) antibody (antibody, V domains shown, Lowered-pI variant; Hspd1.8 = H15 + K19T, Q43E, K63S, K65Q, G66D; Lspd1.6 = L4 + Q27E, KISRVE(79-84) to TISSLQ, S25A) VH: QVQLVQSGAEVKKPGASVTVSCKASGYTFTDYEMHWIRQPPGEGLEWIGAIDPKTGDTAYSQSFQDRVTLTADKSTSTAYMELSSLTSEDTAVYYCTRFYSYTYWGQGTLVTVSS VL: DIVMTQSPLSLPVTPGEPASISCRASESLVHSNRNTYLHWYQQKPGQAPRLLIYKVSNRFSGVPDRFSGSGSGTDFTLTISSLQAEDVGVYYCSQNTHVPPTFGQGTKLEIK | binding result [4]: binds |
| – | pH7pL14 antibody (antibody, V domains shown) VH: QVQLVQSGAEVKKPGASVTVSCKASGYTFTDYEMHWIRQPPGEGLEWIGAIDPKTGDTAYSESFQDRVTLTADKSTSTAYMELSSLTSEDTAVYYCTRFYSYTYWGQGTLVTVSS VL: DIVMTQSPLSLPVTPGEPASISCQASESLVHSNRNTYLHWYLQKPGQSPQLLIYKVSNRFSGVPDRFSGSGSGTDFTLKISRVEAEDVGVYYCSQNTHVPPTFGQGTKLEIK | binding result [5]: binds |
